Our source for the protein stability index values is the supplement of paper PMC10567573.

± gives the standard deviation.

This data set is described as follows: protein stability index of a GFP-peptide fusion (GPS, HEK-293T) (PSI 1-6); higher = more stable. Particulars: c terminus: a fixed tail appended.
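Also: 24-mer peptide tiles fused after GFP, lentivirally expressed, FACS-sorted into six equal bins by GFP/DsRed ratio, decoded by Illumina sequencing, PSI is the read-weighted mean bin number.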

Take NFIGRQWEISDDYPSLQAMGWFNN [CRYBA1]: the protein stability index runs as follows: (treatment: DMSO) 2.45 ± 0.18; (treatment: MLN4924 1 uM, 8 h) 2.32 ± 0.18.

In the case of NFLFRNAASTLTERPCYNRRASKL [ANKRD40], the protein stability index (treatment: DMSO) worked out at 3.19 ± 0.28 and the protein stability index (treatment: MLN4924 1 uM, 8 h) came out at 3.4 ± 0.12.

The sequence NFSAAKSLLNKKADGVKPQTNSTK [CAMK2B] gave a protein stability index (treatment: DMSO) of 4.98 ± 0.22 and a protein stability index (treatment: MLN4924 1 uM, 8 h) of 4.85 ± 0.34.

For NFSNYYVAHPPVTYSQPYPTWLPC [TENT5C], the protein stability index is, setting by setting: (treatment: DMSO) 2.46 ± 0.5; (treatment: MLN4924 1 uM, 8 h) 2.17 ± 0.098.

Turning to NFSVDRWERKEGGGGISCVLQDGC [CPOX], the protein stability index runs as follows: (treatment: DMSO) 3.8 ± 0.2; (treatment: MLN4924 1 uM, 8 h) 3.8 ± 0.33.

The sequence NHFVWRLIPVPMATQIQQLLQDKQ [VPS39] had a protein stability index (treatment: DMSO) of 2.3 ± 0.44 and a protein stability index (treatment: MLN4924 1 uM, 8 h) of 2.16 ± 0.31.

Turning to NIGINGNHSLETCETTLFALRMAT [PTGFR], the protein stability index is, setting by setting: (treatment: DMSO) 2.34 ± 0.21; (treatment: MLN4924 1 uM, 8 h) 2.33 ± 0.34.

In the case of NITDETPDNCEMFLNFNGMKLFLD [ZER1], the protein stability index (treatment: DMSO) came out at 3.62 ± 0.18 and the protein stability index (treatment: MLN4924 1 uM, 8 h) is 3.65 ± 0.46.

As for NKISRFQAPISAPEYTYGISNIDT [MFF], the protein stability index was 3.42 ± 0.28 (treatment: DMSO) and 3.56 ± 0.45 (treatment: MLN4924 1 uM, 8 h).

In the case of NKTPGAPESSALQPPPQSSEGLVG [WAS], the protein stability index by setting is: (treatment: DMSO) 5.41 ± 0.35; (treatment: MLN4924 1 uM, 8 h) 5.3 ± 0.31.

NLAQDPQCKEWQVLMCGFPFLLLF [TMEM120A] returned a protein stability index (treatment: DMSO) of 2.5 ± 0.61 and a protein stability index (treatment: MLN4924 1 uM, 8 h) of 2.35 ± 0.61.

Consider NLLPAAGELQESGLALCPEVQDLL [SMG5], for which the protein stability index was 4.26 ± 0.21 (treatment: DMSO) and 4.31 ± 0.13 (treatment: MLN4924 1 uM, 8 h).

With NLVARHPLFSEDVVLKLFLSFSGS [SNX8], the protein stability index turned out to be 2.7 ± 0.58 (treatment: DMSO) and 2.33 ± 0.2 (treatment: MLN4924 1 uM, 8 h).

On to NMNDNFLEGEEENELTLNEKNFFP [CHGB], for which the protein stability index came out at 4.71 ± 0.16 (treatment: DMSO) and 4.81 ± 0.14 (treatment: MLN4924 1 uM, 8 h).

As to NNVVPIHVPPTTENKPKVQCCQNI [RAB11A], the protein stability index reads like this: (treatment: DMSO) 4.56 ± 0.15; (treatment: MLN4924 1 uM, 8 h) 4.57 ± 0.21.

For the sequence NPPKASAAPDCTPSLEAGNPAPAA [MYCL], the protein stability index (treatment: DMSO) was found to be 5.34 ± 0.19 and the protein stability index (treatment: MLN4924 1 uM, 8 h) is 5.34 ± 0.23.

With NQMKERQGLFFDMEAYLPKKNGLY [TMEM120A], the protein stability index reads like this: (treatment: DMSO) 2.65 ± 0.077; (treatment: MLN4924 1 uM, 8 h) 2.73 ± 0.15.

With NQNSWGTGEDVKVILKNSQGEEVA [LMNB1], the protein stability index by setting is: (treatment: DMSO) 4.99 ± 0.22; (treatment: MLN4924 1 uM, 8 h) 4.85 ± 0.13.

Take NRKRECGNAHYQRADFVLAANSYD [FKBP8]: the protein stability index is 3.33 ± 0.35 (treatment: DMSO) and 3.68 ± 0.29 (treatment: MLN4924 1 uM, 8 h).

As to NRPIETYQVHDYLRSKLCSLYEND [PPP2R2B], the protein stability index was 2.97 ± 0.084 (treatment: DMSO) and 3.22 ± 0.16 (treatment: MLN4924 1 uM, 8 h).

NSAAATSPKGTLPPAALESSDSAN [CAMK2B] displayed a protein stability index (treatment: DMSO) of 5.39 ± 0.096 and a protein stability index (treatment: MLN4924 1 uM, 8 h) of 5.37 ± 0.21.

NSALKDKEDQFGRTPLMYCVLADR [INVS] displayed a protein stability index (treatment: DMSO) of 3.37 ± 0.4 and a protein stability index (treatment: MLN4924 1 uM, 8 h) of 3.23 ± 0.37.

For the sequence NSLLEEETILHFFVQILLALHHVH [NEK8], the protein stability index runs as follows: (treatment: DMSO) 2.38 ± 0.11; (treatment: MLN4924 1 uM, 8 h) 2.33 ± 0.35.

Turning to NTEIEKLGRSIVSSPQGKSGPEAA [PKD2L1], the protein stability index is, setting by setting: (treatment: DMSO) 5.35 ± 0.22; (treatment: MLN4924 1 uM, 8 h) 5.34 ± 0.15.

For NTIAFRHLFLLGYSDGADDTFAAY [MCOLN1], the protein stability index (treatment: DMSO) was determined as 2.46 ± 0.66 and the protein stability index (treatment: MLN4924 1 uM, 8 h) is 2.33 ± 0.12.

On to NTLKRENSSPRVMQRKQSLGKPDQ [DLC1], for which the protein stability index reads like this: (treatment: DMSO) 4.85 ± 0.24; (treatment: MLN4924 1 uM, 8 h) 4.83 ± 0.38.

Consider NVINHFYCDLPQLFQLSCSSTQLN [OR3A1], for which the protein stability index is 3 ± 0.66 (treatment: DMSO) and 2.84 ± 0.34 (treatment: MLN4924 1 uM, 8 h).

Turning to NWEAPPGAFDSFLLRFGVPSPSTL [TNXB], the protein stability index runs as follows: (treatment: DMSO) 3.06 ± 0.37; (treatment: MLN4924 1 uM, 8 h) 2.85 ± 0.28.

As to NYTNPLKVQTVIILGKVILWILHL [TMEM192], the protein stability index turned out to be 2.08 ± 0.19 (treatment: DMSO) and 2.15 ± 0.24 (treatment: MLN4924 1 uM, 8 h).

On to PANVDASVMFRKWRDSKGKDKEYA [UBE2R2], for which the protein stability index runs as follows: (treatment: DMSO) 4.09 ± 0.27; (treatment: MLN4924 1 uM, 8 h) 3.95 ± 0.24.

In the case of PAPATQMPSTPGFVGYNPYSHLAY [SMARCE1], the protein stability index (treatment: DMSO) is 2.37 ± 0.21 and the protein stability index (treatment: MLN4924 1 uM, 8 h) stood at 2.44 ± 0.27.

As to PAQRITLAEALLHPFFAGLTPEER [CLK3], the protein stability index reads like this: (treatment: DMSO) 3 ± 0.28; (treatment: MLN4924 1 uM, 8 h) 3.13 ± 0.27.

Consider PAVDLNQVLNETRNQYEALVETNR [KRT33B], for which the protein stability index came out at 3.39 ± 0.36 (treatment: DMSO) and 3.87 ± 0.74 (treatment: MLN4924 1 uM, 8 h).

As for PCWKITLFVIVPVLGPLVALIICY [MOG], the protein stability index by setting is: (treatment: DMSO) 2.87 ± 0.98; (treatment: MLN4924 1 uM, 8 h) 2.88 ± 1.2.

Regarding PDNEQLMEEVISPRQVSYTPQHHE [IQUB], the protein stability index was found to be 5.16 ± 0.4 (treatment: DMSO) and 5.32 ± 0.19 (treatment: MLN4924 1 uM, 8 h).

As for PDTELKRYFGARAILGEQRPRQRQ [TCF25], the protein stability index by setting is: (treatment: DMSO) 4.25 ± 0.11; (treatment: MLN4924 1 uM, 8 h) 4.11 ± 0.18.

Sequence PEDGRIFAQRTFDYELLQMLQIVV [PCDHGC5] registered a protein stability index (treatment: DMSO) of 2.19 ± 0.4 and a protein stability index (treatment: MLN4924 1 uM, 8 h) of 2.3 ± 0.36.

For PEDLAQLEELIDMAVLEEIQQELI [RPAIN], the protein stability index runs as follows: (treatment: DMSO) 2.54 ± 0.14; (treatment: MLN4924 1 uM, 8 h) 2.89 ± 0.41.

For the sequence PEDRPSLDDIIRHDFFLQGFTPDR [PLK2], the protein stability index turned out to be 4.35 ± 0.12 (treatment: DMSO) and 4.27 ± 0.29 (treatment: MLN4924 1 uM, 8 h).

On to PESDILQPVPNTTEPDYKSKDWVF [STK38L], for which the protein stability index runs as follows: (treatment: DMSO) 4.45 ± 0.32; (treatment: MLN4924 1 uM, 8 h) 4.55 ± 0.19.

Take PESSALQPPPQSSEGLVGALMHVM [WAS]: the protein stability index (treatment: DMSO) is 3.77 ± 0.17 and the protein stability index (treatment: MLN4924 1 uM, 8 h) was found to be 3.58 ± 0.56.

Turning to PETEAVSSSQEIPTMPQPIEKVSV [ZMYND11], the protein stability index is, setting by setting: (treatment: DMSO) 5.24 ± 0.33; (treatment: MLN4924 1 uM, 8 h) 5.36 ± 0.26.

Consider PETQLFWDKEPWFWHDTLTEQLWR [TLE6], for which the protein stability index is 2.7 ± 0.57 (treatment: DMSO) and 2.27 ± 0.36 (treatment: MLN4924 1 uM, 8 h).

With PFETREPPPAYEPPAPAPLPPPSA [SCAMP3], the protein stability index reads like this: (treatment: DMSO) 4.99 ± 0.22; (treatment: MLN4924 1 uM, 8 h) 5.08 ± 0.41.

In the case of PFHEMFVSRGGHGQQDLFRVLKAY [TBC1D10A], the protein stability index (treatment: DMSO) was determined as 2.25 ± 0.18 and the protein stability index (treatment: MLN4924 1 uM, 8 h) amounted to 2.42 ± 0.085.

PFLFFGHFWQLFNALTLFNLAQDP [TMEM120A]: the protein stability index reads like this: (treatment: DMSO) 3.35 ± 0.086; (treatment: MLN4924 1 uM, 8 h) 3.08 ± 0.13.

As for PFYTSRIDEVLLHQDVDLVCINLP [GFOD1], the protein stability index amounted to 2.08 ± 0.18 (treatment: DMSO) and 2.21 ± 0.35 (treatment: MLN4924 1 uM, 8 h).

PGDMLLQVNEINFENMSNDDAVRV [DVL3]: the protein stability index (treatment: DMSO) amounted to 4.4 ± 0.35 and the protein stability index (treatment: MLN4924 1 uM, 8 h) is 4.37 ± 0.21.

As to PGETRRNSYPRADTGLFSRSKSGS [TRIM29], the protein stability index by setting is: (treatment: DMSO) 4.73 ± 0.18; (treatment: MLN4924 1 uM, 8 h) 5.01 ± 0.47.

With PGFYATYESTLFEDQVPALEAPED [MIA2], the protein stability index (treatment: DMSO) was determined as 5.18 ± 0.27 and the protein stability index (treatment: MLN4924 1 uM, 8 h) amounted to 4.92 ± 0.36.

In the case of PGPGGTMKRHSSRDAAGKPQRPRS [FCHO1], the protein stability index is, setting by setting: (treatment: DMSO) 5.04 ± 0.16; (treatment: MLN4924 1 uM, 8 h) 5.12 ± 0.17.

Regarding PGSASLAQSRLEDPGQDLVPKQAI [DLX1], the protein stability index was 4.83 ± 0.48 (treatment: DMSO) and 5 ± 0.34 (treatment: MLN4924 1 uM, 8 h).

As for PIRCGEVLFAVGGWCSGDAISSVE [KLHL20], the protein stability index runs as follows: (treatment: DMSO) 2.22 ± 0.42; (treatment: MLN4924 1 uM, 8 h) 2.34 ± 0.41.
